According to IntAct's records for PubMed 24510189:

B1: mRNA-decapping enzyme 1A (Homo sapiens), Q9NPI6 (parent)
chain: MEALSRAGQEMSLAALKQHDPYITSIADLTGQVALYTFCPKANQWEKTDIEGTLFVYRRSASPYHGFTIVNRLNMHNLVEPVNKDLEFQLHEPFLLYRNASLSIYSIWFYDKNDCHRIAKLMADVVEEETRRSQQAARDKQSPSQANGCSDHRPIDILEMLSRAKDEYERNQMGDSNISSPGLQPSTQLSNLGSTETLEEMPSGSQDKSAPSGHKHLTVEELFGTSLPKEQPAVVGLDSEEMERLPGDASQKEPNSFLPFPFEQLGGAPQSETLGVPSAAHHSVQPEITTPVLITPASITQSNEKHAPTYTIPLSPVLSPTLPAEAPTAQVPPSLPRNSTMMQAVKTTPRQRSPLLNQPVPELSHASLIANQSPFRAPLNVTNTAGTSLPSVDLLQKLRLTPQHDQIQTQPLGKGAMVASFSPAAGQLATPESFIEPPSKTAAARVAASASLSNMVLAPLQSMQQNQDPEVFVQPKVLSSAIPVAGAPLVTATTTAVSSVLLAPSVFQQTVTRSSDLERKASSPSPLTIGTPESQRKPSIILSKSQLQDTLIHLIKNDSSFLSTLHEVYLQVLTKNKDNHNL
partner: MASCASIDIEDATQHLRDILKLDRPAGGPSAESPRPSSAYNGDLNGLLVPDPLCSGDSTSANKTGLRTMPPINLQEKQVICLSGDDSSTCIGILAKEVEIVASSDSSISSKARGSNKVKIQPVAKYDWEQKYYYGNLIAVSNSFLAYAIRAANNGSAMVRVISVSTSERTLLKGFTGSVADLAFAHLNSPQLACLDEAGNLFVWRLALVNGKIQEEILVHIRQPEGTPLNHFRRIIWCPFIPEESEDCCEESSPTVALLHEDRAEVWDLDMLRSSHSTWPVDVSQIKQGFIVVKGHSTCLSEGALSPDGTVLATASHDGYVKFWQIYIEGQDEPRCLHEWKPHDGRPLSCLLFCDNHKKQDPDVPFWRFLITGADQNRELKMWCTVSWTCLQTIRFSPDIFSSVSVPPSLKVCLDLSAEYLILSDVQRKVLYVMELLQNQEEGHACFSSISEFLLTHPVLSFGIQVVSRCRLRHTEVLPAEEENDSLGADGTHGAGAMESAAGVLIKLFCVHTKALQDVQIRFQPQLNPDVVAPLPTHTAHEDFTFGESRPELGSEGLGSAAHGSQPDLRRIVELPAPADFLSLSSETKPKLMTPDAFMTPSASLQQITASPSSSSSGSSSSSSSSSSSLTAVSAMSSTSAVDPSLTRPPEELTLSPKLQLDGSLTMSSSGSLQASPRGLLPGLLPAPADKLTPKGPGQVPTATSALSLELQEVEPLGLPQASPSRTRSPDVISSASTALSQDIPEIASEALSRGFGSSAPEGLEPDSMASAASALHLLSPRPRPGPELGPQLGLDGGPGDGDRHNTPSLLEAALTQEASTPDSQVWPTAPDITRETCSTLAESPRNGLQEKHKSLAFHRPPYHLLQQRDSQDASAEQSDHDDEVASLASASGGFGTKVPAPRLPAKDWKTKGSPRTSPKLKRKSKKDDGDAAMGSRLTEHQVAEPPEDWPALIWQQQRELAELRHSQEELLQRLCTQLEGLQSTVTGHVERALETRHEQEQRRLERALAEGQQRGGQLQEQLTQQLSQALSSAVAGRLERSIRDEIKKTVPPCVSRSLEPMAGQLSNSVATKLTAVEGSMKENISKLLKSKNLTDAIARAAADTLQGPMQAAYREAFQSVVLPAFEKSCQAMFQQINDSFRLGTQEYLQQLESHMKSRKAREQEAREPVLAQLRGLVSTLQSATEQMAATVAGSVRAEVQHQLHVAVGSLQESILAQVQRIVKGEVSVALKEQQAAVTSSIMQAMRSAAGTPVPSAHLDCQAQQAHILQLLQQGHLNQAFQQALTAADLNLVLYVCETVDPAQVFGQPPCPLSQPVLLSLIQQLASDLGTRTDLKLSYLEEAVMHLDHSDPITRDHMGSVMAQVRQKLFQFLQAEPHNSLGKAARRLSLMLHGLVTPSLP

Variants of: B1
Conditions: with edc4_human EDC4, Q6P2E9

With MEALSRAGQEMSLAALKQADPYITSIADLTGQVALYTFCPKANQWEKTDIEGTLFVYRRSASPYHGFTIVNRLNMHNLVEPVNKDLEFQLHEPFLLYRNASLSIYSIWFYDKNDCHRIAKLMADVVEEETRRSQQAARDKQSPSQANGCSDHRPIDILEMLSRAKDEYERNQMGDSNISSPGLQPSTQLSNLGSTETLEEMPSGSQDKSAPSGHKHLTVEELFGTSLPKEQPAVVGLDSEEMERLPGDASQKEPNSFLPFPFEQLGGAPQSETLGVPSAAHHSVQPEITTPVLITPASITQSNEKHAPTYTIPLSPVLSPTLPAEAPTAQVPPSLPRNSTMMQAVKTTPRQRSPLLNQPVPELSHASLIANQSPFRAPLNVTNTAGTSLPSVDLLQKLRLTPQHDQIQTQPLGKGAMVASFSPAAGQLATPESFIEPPSKTAAARVAASASLSNMVLAPLQSMQQNQDPEVFVQPKVLSSAIPVAGAPLVTATTTAVSSVLLAPSVFQQTVTRSSDLERKASSPSPLTIGTPESQRKPSIILSKSQLQDTLIHLIKNDSSFLSTLHEVYLQVLTKNKDNHNL [H19A] as the variant, how does the “effect of a mutation on the interaction” value read?
The value was “with no effect”.

How did the “effect of a mutation on the interaction” value turn out when MEALSRAGQEMSLAALKQHDPYITSIADLTGQVALYTFCPKANQWEKTDIEGTLFVYRRSASPYHGFTIVNRLNMHNLVEPVNKDLEFQLHEPFLLYRNASLSIYSIWFYDKNDCHRIAKLMADVVEEETRRSQQAARDKQSPSQANGCSDHRPIDILEMLSRAKDEYERNQMGDSNISSPGLQPSTQLSNLGSTETLEEMPSGSQDKSAPSGHKHLTVEELFGTSLPKEQPAVVGLDSEEMERLPGDASQKEPNSFLPFPFEQLGGAPQSETLGVPSAAHHSVQPEITTPVLITPASITQSNEKHAPTYTIPLSPVLSPTLPAEAPTAQVPPSLPRNSTMMQAVKTTPRQRSPLLNQPVPELSHASLIANQSPFRAPLNVTNTAGTSLPSVDLLQKLRLTPQHDQIQTQPLGKGAMVASFSPAAGQLATPESFIEPPSKTAAARVAASASLSNMVLAPLQSMQQNQDPEVFVQPKVLSSAIPVAGAPLVTATTTAVSSVLLAPSVFQQTVTRSSDLERKASSPSPLTIGTPESQRKPSIILSKSQLQDTLIHSIKNDSSRLSTSHEVYLQVLTKNKDNHNL [L554S;F561R;L565S] was run?
The value was “disrupting interaction strength”.

With MEALSRAGQEMALAALKAADPYITSIADLTGQVALYTFCPKANQWEKTDIEGTLFVYRRSASPYHGFTIVNRLNMHNLVEPVNKDLEFQLHEPFLLYRNASLSIYSIWFYDKNDCHRIAKLMADVVEEETRRSQQAARDKQSPSQANGCSDHRPIDILEMLSRAKDEYERNQMGDSNISSPGLQPSTQLSNLGSTETLEEMPSGSQDKSAPSGHKHLTVEELFGTSLPKEQPAVVGLDSEEMERLPGDASQKEPNSFLPFPFEQLGGAPQSETLGVPSAAHHSVQPEITTPVLITPASITQSNEKHAPTYTIPLSPVLSPTLPAEAPTAQVPPSLPRNSTMMQAVKTTPRQRSPLLNQPVPELSHASLIANQSPFRAPLNVTNTAGTSLPSVDLLQKLRLTPQHDQIQTQPLGKGAMVASFSPAAGQLATPESFIEPPSKTAAARVAASASLSNMVLAPLQSMQQNQDPEVFVQPKVLSSAIPVAGAPLVTATTTAVSSVLLAPSVFQQTVTRSSDLERKASSPSPLTIGTPESQRKPSIILSKSQLQDTLIHLIKNDSSFLSTLHEVYLQVLTKNKDNHNL [S12A;Q18A;H19A] as the variant, how does the “effect of a mutation on the interaction” value read?
The value was “with no effect”.

For MEALSRAGQEMALAALKQADPYITSIADLTGQVALYTFCPKANQWEKTDIEGTLFVYRRSASPYHGFTIVNRLNMHNLVEPVNKDLEFQLHEPFLLYRNASLSIYSIWFYDKNDCHRIAKLMADVVEEETRRSQQAARDKQSPSQANGCSDHRPIDILEMLSRAKDEYERNQMGDSNISSPGLQPSTQLSNLGSTETLEEMPSGSQDKSAPSGHKHLTVEELFGTSLPKEQPAVVGLDSEEMERLPGDASQKEPNSFLPFPFEQLGGAPQSETLGVPSAAHHSVQPEITTPVLITPASITQSNEKHAPTYTIPLSPVLSPTLPAEAPTAQVPPSLPRNSTMMQAVKTTPRQRSPLLNQPVPELSHASLIANQSPFRAPLNVTNTAGTSLPSVDLLQKLRLTPQHDQIQTQPLGKGAMVASFSPAAGQLATPESFIEPPSKTAAARVAASASLSNMVLAPLQSMQQNQDPEVFVQPKVLSSAIPVAGAPLVTATTTAVSSVLLAPSVFQQTVTRSSDLERKASSPSPLTIGTPESQRKPSIILSKSQLQDTLIHLIKNDSSFLSTLHEVYLQVLTKNKDNHNL [S12A;H19A], which “effect of a mutation on the interaction” value is on record?
The value was “with no effect”.

For MEALSRAGQEMSLAALKAADPYITSIADLTGQVALYTFCPKANQWEKTDIEGTLFVYRRSASPYHGFTIVNRLNMHNLVEPVNKDLEFQLHEPFLLYRNASLSIYSIWFYDKNDCHRIAKLMADVVEEETRRSQQAARDKQSPSQANGCSDHRPIDILEMLSRAKDEYERNQMGDSNISSPGLQPSTQLSNLGSTETLEEMPSGSQDKSAPSGHKHLTVEELFGTSLPKEQPAVVGLDSEEMERLPGDASQKEPNSFLPFPFEQLGGAPQSETLGVPSAAHHSVQPEITTPVLITPASITQSNEKHAPTYTIPLSPVLSPTLPAEAPTAQVPPSLPRNSTMMQAVKTTPRQRSPLLNQPVPELSHASLIANQSPFRAPLNVTNTAGTSLPSVDLLQKLRLTPQHDQIQTQPLGKGAMVASFSPAAGQLATPESFIEPPSKTAAARVAASASLSNMVLAPLQSMQQNQDPEVFVQPKVLSSAIPVAGAPLVTATTTAVSSVLLAPSVFQQTVTRSSDLERKASSPSPLTIGTPESQRKPSIILSKSQLQDTLIHLIKNDSSFLSTLHEVYLQVLTKNKDNHNL [Q18A;H19A], which “effect of a mutation on the interaction” value is on record?
The value was “with no effect”.
